Experimental data reported in patent US20140072613A1, “Compositions and Methods for Treating Cutaneous Scarring” (priority 2012, published 2014).

Key:
Assay in all cases: cell-based or functional assay
[1] = biological target: Src(T341M)(h) (human) (UniProt P12931)
[2] = biological target: T1, PKCµ(h) (human) (UniProt Q15139)
T1 sequence (looked up): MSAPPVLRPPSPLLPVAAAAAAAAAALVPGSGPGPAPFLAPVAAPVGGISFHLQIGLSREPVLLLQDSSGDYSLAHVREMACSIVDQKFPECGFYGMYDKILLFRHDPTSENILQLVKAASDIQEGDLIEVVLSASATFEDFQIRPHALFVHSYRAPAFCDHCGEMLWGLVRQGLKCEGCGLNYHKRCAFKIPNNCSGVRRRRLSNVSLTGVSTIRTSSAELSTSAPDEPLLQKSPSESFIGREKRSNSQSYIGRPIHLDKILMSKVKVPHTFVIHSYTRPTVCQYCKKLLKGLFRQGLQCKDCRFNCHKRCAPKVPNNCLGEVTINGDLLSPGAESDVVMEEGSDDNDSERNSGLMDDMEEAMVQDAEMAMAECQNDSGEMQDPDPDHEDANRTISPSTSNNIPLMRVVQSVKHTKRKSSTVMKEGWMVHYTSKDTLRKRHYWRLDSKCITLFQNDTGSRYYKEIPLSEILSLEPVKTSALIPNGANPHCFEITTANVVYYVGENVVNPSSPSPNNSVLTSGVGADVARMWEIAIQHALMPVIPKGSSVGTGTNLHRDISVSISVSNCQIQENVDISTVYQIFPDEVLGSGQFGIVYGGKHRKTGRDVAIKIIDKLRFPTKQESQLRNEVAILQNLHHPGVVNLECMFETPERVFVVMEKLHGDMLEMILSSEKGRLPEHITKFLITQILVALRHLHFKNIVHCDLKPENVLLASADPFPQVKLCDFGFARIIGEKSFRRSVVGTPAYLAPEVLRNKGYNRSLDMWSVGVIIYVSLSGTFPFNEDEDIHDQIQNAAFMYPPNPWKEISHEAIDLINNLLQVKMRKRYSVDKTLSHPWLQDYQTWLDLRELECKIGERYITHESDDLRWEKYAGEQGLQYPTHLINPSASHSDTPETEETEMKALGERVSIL

[3] = biological target: PDGFRα(V561D)(h) (human) (UniProt P16234)
Chain of PDGFRα(V561D)(h) (human) (P16234 550-1089 V561D limits assumed): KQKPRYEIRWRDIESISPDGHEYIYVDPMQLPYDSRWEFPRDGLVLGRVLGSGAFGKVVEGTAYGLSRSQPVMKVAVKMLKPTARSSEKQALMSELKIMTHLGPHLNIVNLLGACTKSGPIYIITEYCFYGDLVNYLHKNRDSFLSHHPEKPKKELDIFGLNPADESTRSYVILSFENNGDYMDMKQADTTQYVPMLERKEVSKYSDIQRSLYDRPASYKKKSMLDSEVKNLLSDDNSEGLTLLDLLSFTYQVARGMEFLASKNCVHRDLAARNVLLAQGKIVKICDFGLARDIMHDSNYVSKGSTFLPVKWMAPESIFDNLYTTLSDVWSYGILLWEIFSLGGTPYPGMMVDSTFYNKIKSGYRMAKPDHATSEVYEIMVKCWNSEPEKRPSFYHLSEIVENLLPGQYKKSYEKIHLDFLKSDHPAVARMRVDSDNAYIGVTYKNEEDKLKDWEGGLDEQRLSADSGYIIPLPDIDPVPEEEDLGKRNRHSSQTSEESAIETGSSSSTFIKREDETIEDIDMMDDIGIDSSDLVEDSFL

[4] = biological target: IRR(h) (human) (UniProt P14616)
Chain of IRR(h) (human) (P14616 960-1297 limits assumed): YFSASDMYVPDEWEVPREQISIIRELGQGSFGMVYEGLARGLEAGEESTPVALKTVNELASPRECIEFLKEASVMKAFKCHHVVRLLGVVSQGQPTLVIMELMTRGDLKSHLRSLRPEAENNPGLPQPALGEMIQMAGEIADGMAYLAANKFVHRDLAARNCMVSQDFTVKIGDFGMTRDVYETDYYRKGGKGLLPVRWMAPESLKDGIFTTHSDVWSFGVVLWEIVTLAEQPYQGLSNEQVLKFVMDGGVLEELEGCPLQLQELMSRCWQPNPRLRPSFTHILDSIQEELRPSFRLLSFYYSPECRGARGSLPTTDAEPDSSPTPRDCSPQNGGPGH

[5] = biological target: T2, PDK1(h) (human) (UniProt O15530)
T2 sequence (looked up): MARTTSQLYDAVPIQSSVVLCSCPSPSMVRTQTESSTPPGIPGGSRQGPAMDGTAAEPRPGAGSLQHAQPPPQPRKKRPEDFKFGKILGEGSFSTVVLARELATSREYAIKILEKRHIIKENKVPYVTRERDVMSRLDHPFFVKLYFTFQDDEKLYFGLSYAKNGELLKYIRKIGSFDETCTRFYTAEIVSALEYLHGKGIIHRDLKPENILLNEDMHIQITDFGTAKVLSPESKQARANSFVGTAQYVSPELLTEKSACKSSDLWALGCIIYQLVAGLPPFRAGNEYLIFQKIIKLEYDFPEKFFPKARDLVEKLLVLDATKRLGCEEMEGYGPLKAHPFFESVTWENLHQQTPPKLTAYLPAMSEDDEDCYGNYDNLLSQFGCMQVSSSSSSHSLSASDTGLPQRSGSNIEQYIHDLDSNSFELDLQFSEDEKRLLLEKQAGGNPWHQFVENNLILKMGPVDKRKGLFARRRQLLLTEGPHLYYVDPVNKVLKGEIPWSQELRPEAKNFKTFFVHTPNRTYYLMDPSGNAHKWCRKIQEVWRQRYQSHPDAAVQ

[6] = biological target: T3, MST1(h) (human) (UniProt Q13043)
T3 sequence (looked up): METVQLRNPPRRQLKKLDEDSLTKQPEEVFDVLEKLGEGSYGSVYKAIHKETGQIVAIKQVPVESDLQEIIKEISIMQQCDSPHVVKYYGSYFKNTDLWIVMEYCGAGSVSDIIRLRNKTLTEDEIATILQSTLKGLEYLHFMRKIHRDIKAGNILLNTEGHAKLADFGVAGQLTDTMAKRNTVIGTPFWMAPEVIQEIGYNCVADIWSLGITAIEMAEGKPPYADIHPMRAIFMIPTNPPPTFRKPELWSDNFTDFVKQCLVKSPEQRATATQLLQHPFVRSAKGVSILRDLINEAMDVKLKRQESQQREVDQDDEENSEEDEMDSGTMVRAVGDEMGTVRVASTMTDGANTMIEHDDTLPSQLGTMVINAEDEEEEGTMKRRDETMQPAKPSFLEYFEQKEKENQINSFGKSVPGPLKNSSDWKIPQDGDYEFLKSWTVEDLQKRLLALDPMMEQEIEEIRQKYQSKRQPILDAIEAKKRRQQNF

[7] = biological target: HIPK2(h) (human) (UniProt Q9H2X6)
Chain of HIPK2(h) (human) (Q9H2X6 165-564 limits assumed): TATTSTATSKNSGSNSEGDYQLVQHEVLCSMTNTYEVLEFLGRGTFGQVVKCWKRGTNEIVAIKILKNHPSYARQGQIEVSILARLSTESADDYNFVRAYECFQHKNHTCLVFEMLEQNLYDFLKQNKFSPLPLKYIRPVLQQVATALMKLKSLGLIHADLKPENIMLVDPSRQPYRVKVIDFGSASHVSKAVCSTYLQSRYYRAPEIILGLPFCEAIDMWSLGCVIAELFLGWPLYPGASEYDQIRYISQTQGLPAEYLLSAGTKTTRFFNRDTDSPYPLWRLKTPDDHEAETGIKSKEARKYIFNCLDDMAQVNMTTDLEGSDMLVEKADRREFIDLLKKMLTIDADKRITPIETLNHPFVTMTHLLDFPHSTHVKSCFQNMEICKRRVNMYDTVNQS

[8] = biological target: T4, SAPK4(h) (human) (UniProt O15264)
T4 sequence (looked up): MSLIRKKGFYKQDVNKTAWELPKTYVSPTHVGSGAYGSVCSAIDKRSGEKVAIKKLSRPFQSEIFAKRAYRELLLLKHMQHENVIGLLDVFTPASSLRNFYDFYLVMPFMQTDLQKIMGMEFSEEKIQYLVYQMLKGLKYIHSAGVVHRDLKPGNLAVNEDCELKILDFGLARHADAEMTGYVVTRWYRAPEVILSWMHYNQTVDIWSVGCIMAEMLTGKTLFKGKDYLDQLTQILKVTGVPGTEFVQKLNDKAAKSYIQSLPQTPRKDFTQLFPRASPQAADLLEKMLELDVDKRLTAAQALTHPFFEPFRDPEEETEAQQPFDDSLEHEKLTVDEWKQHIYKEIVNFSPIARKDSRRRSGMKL

[9] = biological target: Abl(Q252H)(h) (human) (UniProt P00519)
Chain of Abl(Q252H)(h) (human) (P00519 27-1130 Q252H limits assumed): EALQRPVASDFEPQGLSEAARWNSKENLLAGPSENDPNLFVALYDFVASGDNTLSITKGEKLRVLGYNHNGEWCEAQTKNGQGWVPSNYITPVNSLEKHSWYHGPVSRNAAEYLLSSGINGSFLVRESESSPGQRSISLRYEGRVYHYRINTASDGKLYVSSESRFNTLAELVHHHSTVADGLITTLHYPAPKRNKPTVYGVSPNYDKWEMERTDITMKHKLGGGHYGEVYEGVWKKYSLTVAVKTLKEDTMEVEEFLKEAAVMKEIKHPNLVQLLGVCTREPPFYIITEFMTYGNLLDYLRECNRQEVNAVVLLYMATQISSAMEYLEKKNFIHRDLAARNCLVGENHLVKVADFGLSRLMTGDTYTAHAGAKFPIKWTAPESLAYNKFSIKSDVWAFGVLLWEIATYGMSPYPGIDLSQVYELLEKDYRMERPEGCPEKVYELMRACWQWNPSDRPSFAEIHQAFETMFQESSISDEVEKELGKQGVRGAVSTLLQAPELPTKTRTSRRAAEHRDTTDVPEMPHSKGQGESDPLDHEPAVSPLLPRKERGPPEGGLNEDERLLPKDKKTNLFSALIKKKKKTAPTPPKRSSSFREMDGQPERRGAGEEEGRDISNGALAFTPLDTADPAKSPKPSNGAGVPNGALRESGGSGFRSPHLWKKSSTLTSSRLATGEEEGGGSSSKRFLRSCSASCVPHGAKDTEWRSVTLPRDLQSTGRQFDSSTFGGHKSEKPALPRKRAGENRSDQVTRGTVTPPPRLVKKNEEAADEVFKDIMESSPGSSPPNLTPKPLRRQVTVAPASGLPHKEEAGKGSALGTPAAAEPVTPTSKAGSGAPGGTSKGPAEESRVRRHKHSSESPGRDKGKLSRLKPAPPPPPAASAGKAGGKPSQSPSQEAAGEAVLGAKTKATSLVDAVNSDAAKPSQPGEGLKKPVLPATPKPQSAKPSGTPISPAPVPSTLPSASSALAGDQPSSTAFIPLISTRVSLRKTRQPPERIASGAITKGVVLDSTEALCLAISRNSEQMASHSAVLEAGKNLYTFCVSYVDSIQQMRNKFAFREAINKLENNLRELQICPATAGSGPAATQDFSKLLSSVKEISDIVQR

[10] = biological target: Lck(h) activated (human) (UniProt P06239)
Chain of Lck(h) activated (human) (P06239 whole entry): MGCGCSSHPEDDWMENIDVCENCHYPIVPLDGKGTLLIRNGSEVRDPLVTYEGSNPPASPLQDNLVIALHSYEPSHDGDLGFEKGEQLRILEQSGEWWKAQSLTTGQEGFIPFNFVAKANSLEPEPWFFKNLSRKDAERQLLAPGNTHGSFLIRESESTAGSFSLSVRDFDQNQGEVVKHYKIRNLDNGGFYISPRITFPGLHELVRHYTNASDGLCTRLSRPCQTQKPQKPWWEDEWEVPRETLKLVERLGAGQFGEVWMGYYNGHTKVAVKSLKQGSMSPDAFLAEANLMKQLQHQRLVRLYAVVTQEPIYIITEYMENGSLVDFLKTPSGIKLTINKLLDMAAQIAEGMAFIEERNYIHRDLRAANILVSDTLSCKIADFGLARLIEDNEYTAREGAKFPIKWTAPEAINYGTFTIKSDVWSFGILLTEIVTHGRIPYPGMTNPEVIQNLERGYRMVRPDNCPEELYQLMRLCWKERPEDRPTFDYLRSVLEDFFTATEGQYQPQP

[11] = biological target: CaMKI(h) (human) (UniProt Q14012)
Chain of CaMKI(h) (human) (Q14012 whole entry): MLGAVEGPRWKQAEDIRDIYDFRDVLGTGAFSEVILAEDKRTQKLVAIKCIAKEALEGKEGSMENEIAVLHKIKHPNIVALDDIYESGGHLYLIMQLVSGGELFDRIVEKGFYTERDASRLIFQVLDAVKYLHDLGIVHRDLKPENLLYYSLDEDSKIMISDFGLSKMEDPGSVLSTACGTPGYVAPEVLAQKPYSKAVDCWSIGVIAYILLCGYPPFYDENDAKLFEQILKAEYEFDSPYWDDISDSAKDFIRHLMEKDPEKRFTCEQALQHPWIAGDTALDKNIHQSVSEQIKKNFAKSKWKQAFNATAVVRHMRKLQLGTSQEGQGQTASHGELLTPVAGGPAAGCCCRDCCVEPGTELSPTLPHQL

[12] = biological target: Tie2(Y897S)(h) (human) (UniProt Q02763)
Chain of Tie2(Y897S)(h) (human) (Q02763 771-1124 Y897S limits assumed): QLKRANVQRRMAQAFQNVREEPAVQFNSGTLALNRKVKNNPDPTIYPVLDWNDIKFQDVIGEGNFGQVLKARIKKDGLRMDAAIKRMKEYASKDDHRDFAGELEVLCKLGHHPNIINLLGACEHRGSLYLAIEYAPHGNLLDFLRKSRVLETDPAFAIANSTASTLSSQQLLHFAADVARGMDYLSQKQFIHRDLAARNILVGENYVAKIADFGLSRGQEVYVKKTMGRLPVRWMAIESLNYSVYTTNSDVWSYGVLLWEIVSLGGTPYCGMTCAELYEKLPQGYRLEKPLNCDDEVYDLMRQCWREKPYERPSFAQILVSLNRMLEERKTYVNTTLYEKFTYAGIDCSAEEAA

% activity, 100 µM [1]: 59% | % activity, 100 µM [2]: 10% | % activity, 100 µM [3]: 146% | % activity, 100 µM [4]: 10% | % activity, 100 µM [5]: 178% | % activity, 100 µM [6]: 3% | % activity, 100 µM [7]: 38% | % activity, 100 µM [8]: 48% | % activity, 100 µM [9]: 40% | % activity, 100 µM [10]: 76% | % activity, 100 µM [11]: -1% | inhibition of kinase activity at 100 µM [11]: > 65% | % activity, 100 µM [12]: 80%
Substance: MMI-0500 (peptide)
